Measured values: the supplement of paper PMC12042874
± gives the uncertainty stated by the source.

assay: amyloid nucleation score (Sup35N fusion, yeast selection) (log enrichment); library NNK2; higher = more nucleation; inactive = no reads after selection
Method in brief: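 Random libraries were run with three technical output replicates. In each, psi-negative yeast expressing Sup35N fused to peptides of 20 random codons were induced 24 hours with 100 μM copper sulfate and grown 7 days at 30°C on medium lacking adenine and uracil, and input and output plasmid inserts were Illumina-sequenced. The nucleation score is the DiMSum log enrichment of output over input reads, centred on the mode score of non-aggregating sequences, and sequences under 100 input reads were excluded.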

Substance | amyloid nucleation score
EGRVFTGEGRYECCSCFGLL | -0.752 ± 0.64
EHRSVRDLKRMQCEIYSRGV | 0.191 ± 0.8
EHVGVTTVPIPLGMGLTWWC | 0.309 ± 0.16
EIARLTNLDWTNISTFL | -0.698 ± 1.1
EIHGMCTLYIFNSRPYIYPG | 6.594 ± 0.035
EILTNQYFCRLWVMGTFYID | -1.19 ± 1
EITEDSMVLVRWSGARNFHM | 2.56 ± 0.15
EKVNLSTSCRVA | 0.664 ± 0.34
ELAHQNENFRGRRFVAQ | -0.038 ± 1.1
ELDGYLVLFFTGLNP | -0.418 ± 0.63
ELGFGMMIAPSKGEKGDGML | 3.37 ± 0.12
ELGVTNLDVDRHIDY | -0.038 ± 1.1
ELGYCYSFGHSQFFKQSKHG | 3.03 ± 0.071
ELLSRETIKDHWMTIIKYFL | -0.143 ± 0.74
ELVRDGYTPFLFLILETVVM | -0.202 ± 0.49
EMCGATRG | 3.28 ± 0.085
EMIIL | -0.259 ± 0.32
EMSFSLTYSRSRHFRSGGTA | 6.32 ± 0.064
EMVRTTMSWPYMFS | -0.47 ± 1.1
ENERNML | -0.11 ± 0.29
ENSANNLGMFERSSRYRLSG | 0.356 ± 0.34
ENVFDCNRFY | inactive

Substance | amyloid nucleation score
EPKFCGMDNHEL | 3.78 ± 0.14
EQKGSVTYCGYKMSDV | 4.97 ± 0.062
ERFHIVLHMVIDDRVSFGCV | 2.96 ± 0.12
ERSNFWPRVQTPCESVA | 0.016 ± 1.1
ERVDVI | -0.364 ± 0.32
ESASTVTVCLRRVKVSHR | 5.204 ± 0.045
ESDVSRDRMMALRNMYFCHR | 0.192 ± 0.74
ESGVWCKAPFYMSVTLSIHS | -0.487 ± 0.56
ESIVDWSYCFLTTFMSPRWA | 0.193 ± 0.65
ESMLSEFFWDHS | 3.07 ± 0.072
ESNKRTTCLFH | 0.331 ± 0.32
ESRHSSLFHHPE | 0.119 ± 0.65
ESTLDC | 0.343 ± 0.41
ESVRASPV | 0.093 ± 0.28
ETHFVTKDLASSLGKLAHPY | 8.848 ± 0.069
EVTSTY | 0.501 ± 0.46
EWILTELYHWFNFFYCRDGV | -1.2 ± 1.1
EWLTLTDIFT | -0.619 ± 1
EWRGMLLVSTRLVKDIVR | -0.553 ± 0.35
EWTLWSSGLRAES | 0.217 ± 0.3
EYFFYLLSSIMHIE | 2.45 ± 0.1
FAFICTR | inactive

Substance | amyloid nucleation score
FAFYRSFCWRVTWFSWVGGS | inactive
FAHERHTIYRQVSIMMWRSM | 0.426 ± 0.25
FALHGEFFYHKKRSQGFRAH | -1.36 ± 0.61
FALNLFCEDKCLYCSLVSS | 2.92 ± 0.066
FARSFPRFRTESFDCKECRG | inactive
FATQGSHKAVLGRSVHHLCR | -0.447 ± 0.61
FAVKGCNFGTGVFMRVE | 0.021 ± 0.34
FAYSLHRLLWIRCMYSNGR | 1.45 ± 0.17
FCFISSYVPKLYSLKSQVVI | -0.988 ± 0.39
FCFMIEGIFMCRLLLSRASF | inactive
FCLLPIDQPVTGIFLVR | -0.158 ± 0.63
FCNNWDFF | 2.41 ± 0.14
FCSDGK | 0.186 ± 0.3
FCSVCDRL | 0.168 ± 0.23
FCWNYMFVFRIGCFGFDFIG | inactive
FCWRYNSKIRLKHGQDSGPR | -0.343 ± 0.33
FDCRNIREMHTRVYNSCTHP | -0.266 ± 1
FDGHLINTFPRADASIAEDN | -0.454 ± 0.41
FDKASLKFCVMLVVRSV | 0.236 ± 1.1
FDLAMGVSLVKRLRLVLCLS | -1.12 ± 0.64
FDLNYPSVSIIGKVLCSGPV | inactive
FDMEIFTYGGTSNNFGHCDD | inactive

Substance | amyloid nucleation score
FDMVSVVVYMRAVTTKCGPS | 1.73 ± 0.24
FDSYTIMVI | 0.682 ± 0.21
FDVKGRISLNRYSINFNARL | 5.11 ± 0.073
FEDFLCFSGMRFVFELCADT | -0.917 ± 0.78
FEGWVWFIPEASEHSYEHVN | -0.002 ± 1
FEKEWYSGLCFARAVARGMR | 2.97 ± 0.17
FEQRGVTSRLCSPLSYEERM | -0.82 ± 0.3
FERLNYQLREFYKVIKFSCV | inactive
FEVFLM | -0.499 ± 0.41
FEVLIFVDCWFVVMGRETLN | 2.68 ± 0.15
FFFLTHGWEPTVMKEIKSAM | inactive
FFGALNWGLKQE | 0.646 ± 0.43
FFGGNCKVK | -0.146 ± 0.32
FFGLVNWVGLGVHRSMTFAK | -0.609 ± 0.41
FFGTMV | -0.19 ± 0.37
FFGYAGCNRPVNLSYGGRFN | -0.952 ± 0.32
FFHYVNAQVRGWLCTVYIIR | -0.574 ± 0.55
FFIESSMLWYWDLKRYPMTL | -0.225 ± 0.54
FFKRSSFKMGSRITETRYRR | -0.728 ± 0.56
FFLIRSMGSSSAYRLRVCWR | -0.37 ± 0.76
FFMIEMPVKSTFVGWSRSEG | -0.074 ± 0.25
FFPPFVNLGVGTYQV | -1.37 ± 0.54
